Laboratory results published in PMC6895265.
pKd: −log10 of the molar value.

Key:
[1] = biological target: TCF4 bHLH domain (Homo sapiens) (UniProt P15884); experiment: FP; details: 25 C
[2] = biological target: TCF4 bHLH domain (Homo sapiens) (UniProt P15884); experiment: ITC; details: ITC: 20 mM Tris pH 7.5, 150 mM NaCl, 25 C

Sequence of TCF4 bHLH domain (Homo sapiens) (P15884 565-624): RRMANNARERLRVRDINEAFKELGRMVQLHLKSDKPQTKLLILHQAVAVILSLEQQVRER

## CCGGTCACGTGTCCTA (double strand) [FAM 16-mer central CpG M/C]
[1]; 5mC at strand 1 C8, ITC: 20 mM Tris pH 7.5, 150 mM NaCl
  pKd: 6.80

## CCGGTCACGTGTCCTA (double strand) [FAM 16-mer central CpG F/C]
[1]; 5fC at strand 1 C8, ITC: 20 mM Tris pH 7.5, 150 mM NaCl
  pKd: 6.72

## CCGGTCACGTGTCCTA (double strand) [FAM 16-mer central CpG 5caC/C]
[1]; 5caC at strand 1 C8, ITC: 20 mM Tris pH 7.5, 150 mM NaCl
  pKd: 6.85

## CCGGTCACGTGTCCTA (double strand) [FAM 16-mer central CpG H/C]
[1]; 5hmC at strand 1 C8, ITC: 20 mM Tris pH 7.5, 150 mM NaCl
  pKd: 6.80

## CCGGTCACGTGTCCTA (double strand) [FAM 16-mer E-box C/C]
[1]; ITC: 20 mM Tris pH 7.5, 150 mM NaCl
  pKd: 6.96

## ACGCACGTGCGT (double strand) [12-mer CG-flanked, X=C]
[2]
  pKd: 6.43
